{
  "source": "paper PMC8660799",
  "about": "“Cryo-EM reveals unique structural features of the FhuCDB Escherichia coli ferrichrome importer” (Communications Biology, 2021)",
  "molecules": {"B1": {"name": "FhuD, periplasmic substrate-binding protein, expressed alone (natural protein, Escherichia coli, UniProt P07822 31-296, looked up)", "chain": "AAIDPNRIVALEWLPVELLLALGIVPYGVADTINYRLWVSEPPLPDSVIDVGLRTEPNLELLTEMKPSFMVWSAGYGPSPEMLARIAPGRGFNFSDGKQPLAMARKSLTEMADLLNLQSAAETHLAQYEDFIRSMKPRFVKRGARPLLLTTLIDPRHMLVFGPNSLFQEILDEYGIPNAWQGETNFWGSTAVSIDRLAAYKDVDVLCFDHDNSKDMDALMATPLWQAMPFVRAGRFQRVPAVWFYGATLSAMHFVRVLDNAIGGKA", "notes": "the gene was amplified and cloned into pET15b; Used without substrate and loaded with the small molecule ferrichrome (told apart by the assays); also called SBP; ferrichrome-loaded FhuD"}, "B2": {"name": "FhuCB subcomplex (Escherichia coli K-12) (protein)", "chain": "MQEYTNHSDTTFALRNISFRVPGRTLLHPLSLTFPAGKVTGLIGHNGSGKSTLLKMLGRHQPPSEGEILLDAQPLESWSSKAFARKVAYLPQQLPPAEGMTVRELVAIGRYPWHGALGRFGAADREKVEEAISLVGLKPLAHRLVDSLSGGERQRAWIAMLVAQDSRCLLLDEPTSALDIAHQVDVLSLVHRLSQERGLTVIAVLHDINMAARYCDYLVALRGGEMIAQGTPAEIMRGETLEMIYGIPMGILPHPAGAAPVSFVY", "notes": "full-length FhuB and FhuC without FhuD; N-terminal His-tag and thrombin site on FhuC; pET15b, E. coli BL21(DE3) C43; purified in LMNG, reconstituted in E. coli polar lipid proteoliposomes; with Iron(3+)-hydroxamate import system permease protein FhuB"}, "B3": {"name": "FhuCB + FhuD (ATPase assay) (Escherichia coli K-12) (protein)", "chain": "MQEYTNHSDTTFALRNISFRVPGRTLLHPLSLTFPAGKVTGLIGHNGSGKSTLLKMLGRHQPPSEGEILLDAQPLESWSSKAFARKVAYLPQQLPPAEGMTVRELVAIGRYPWHGALGRFGAADREKVEEAISLVGLKPLAHRLVDSLSGGERQRAWIAMLVAQDSRCLLLDEPTSALDIAHQVDVLSLVHRLSQERGLTVIAVLHDINMAARYCDYLVALRGGEMIAQGTPAEIMRGETLEMIYGIPMGILPHPAGAAPVSFVY", "notes": "FhuCB (N-terminal His-tag and thrombin site on FhuC) in proteoliposomes with purified FhuD enclosed; with Iron(3+)-hydroxamate import system permease protein FhuB"}},
  "key": {"BtuF (Escherichia coli) [1]": {"molecular_target": "BtuF (Escherichia coli) (UniProt P37028)", "sequence (P37028 23-266)": "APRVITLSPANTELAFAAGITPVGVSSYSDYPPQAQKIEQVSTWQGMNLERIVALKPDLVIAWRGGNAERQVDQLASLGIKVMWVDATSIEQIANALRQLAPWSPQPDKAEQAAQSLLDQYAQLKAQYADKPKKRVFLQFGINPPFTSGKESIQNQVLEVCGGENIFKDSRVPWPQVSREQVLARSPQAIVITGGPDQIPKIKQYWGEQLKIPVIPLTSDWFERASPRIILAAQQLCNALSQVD", "conditions": "cited from earlier work"}, "BtuF (Escherichia coli) [2]": {"molecular_target": "BtuF (Escherichia coli) (UniProt P37028)", "conditions": "cited from earlier work", "remark": "listed apart in the source"}, "[3]": {"molecular_target": "T1, FhuCB subcomplex (membrane subunit FhuB and cytosolic ATPase FhuC of the ferrichrome importer), wild type (Escherichia coli, UniProt P07821 1-265; P06972 1-660, red-tris-NTA 2nd generation dye on the His-tag (in the MST experiments))", "T1 construct": "cloned from the genome with the operon; a thrombin site stands between the His-tag and FhuC; Made from FhuCB-pET15b (FhuD gene deleted from FhuCDB-pET15b); The copy numbers (two FhuC, one FhuB) are told for the FhuCDB structure; In the gel filtration experiment the same chains came from the FhuCDB construct, co-expressed with FhuD; also called Fhu importer; wild-type FhuCB; source: E. coli …", "T1 sequence (looked up) 1": "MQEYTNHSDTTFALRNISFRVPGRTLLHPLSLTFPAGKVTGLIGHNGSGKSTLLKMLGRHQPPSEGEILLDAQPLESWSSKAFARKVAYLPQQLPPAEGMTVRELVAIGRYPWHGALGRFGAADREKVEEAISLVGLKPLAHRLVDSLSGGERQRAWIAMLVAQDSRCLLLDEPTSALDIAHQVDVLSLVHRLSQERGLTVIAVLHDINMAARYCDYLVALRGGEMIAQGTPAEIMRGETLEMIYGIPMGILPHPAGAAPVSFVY", "T1 sequence (looked up) 2": "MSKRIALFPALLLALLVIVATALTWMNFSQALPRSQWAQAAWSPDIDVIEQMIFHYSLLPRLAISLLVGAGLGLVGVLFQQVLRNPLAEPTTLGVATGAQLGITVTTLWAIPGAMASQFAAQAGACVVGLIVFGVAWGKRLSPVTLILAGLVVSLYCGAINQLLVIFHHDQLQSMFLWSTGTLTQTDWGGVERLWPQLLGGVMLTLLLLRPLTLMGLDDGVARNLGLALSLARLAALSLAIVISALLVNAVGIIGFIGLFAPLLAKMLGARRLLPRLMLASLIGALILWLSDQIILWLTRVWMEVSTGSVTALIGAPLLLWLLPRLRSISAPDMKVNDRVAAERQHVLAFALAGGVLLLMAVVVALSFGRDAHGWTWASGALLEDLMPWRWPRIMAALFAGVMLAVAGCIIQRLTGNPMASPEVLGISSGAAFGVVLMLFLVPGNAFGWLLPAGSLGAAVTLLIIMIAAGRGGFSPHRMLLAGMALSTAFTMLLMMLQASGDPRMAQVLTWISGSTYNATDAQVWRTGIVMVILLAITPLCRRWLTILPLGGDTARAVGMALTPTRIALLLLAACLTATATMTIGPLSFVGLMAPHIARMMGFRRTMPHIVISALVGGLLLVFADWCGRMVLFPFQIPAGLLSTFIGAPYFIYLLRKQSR", "experiment": "MST; 40 nM FhuCB in detergent, His-tag labelled with red-tris-NTA 2nd generation dye; serial dilution of 1.6 μM FhuD with substrate ferrichrome; with ATP; Monolith NT.115pico, 20% LED power, medium MST power", "conditions": "both partners purified"}, "[4]": {"molecular_target": "T1, FhuCB subcomplex (membrane subunit FhuB …)", "experiment": "MST; 40 nM FhuCB in detergent, His-tag labelled with red-tris-NTA 2nd generation dye; serial dilution of 1.6 μM FhuD with substrate ferrichrome; without ATP-Mg; Monolith NT.115pico, 20% LED power, medium MST power", "conditions": "both partners purified"}, "[5]": {"substrate": "Nc1ncnc2c1ncn2[C@@H]1O[C@H](COP(=O)(O)OP(=O)(O)OP(=O)(O)O)[C@@H](O)[C@H]1O", "experiment": "ATPase assay in proteoliposomes, malachite green phosphate detection", "type": "biochemical, Escherichia coli", "conditions": "MgCl2, 37 °C"}},
  "note": "Read-outs that look alike come from different tables or passages of the source.",
  "data": [
    {"molecule": "BtuCD (from UniProt P06609)", "values": [
      {"measurement": "Kd", "setting": "BtuF (Escherichia coli) [1]", "result": 0.00012, "unit": "nM"},
      {"measurement": "Kd", "setting": "BtuF (Escherichia coli) [2]", "result": 21.1, "unit": "nM"}
    ]},
    {"molecule": "B1", "values": [
      {"measurement": "Kd", "setting": "[3]", "result": "~1.03", "unit": "nM"},
      {"measurement": "Kd", "setting": "[4]", "result": "~12.2", "unit": "nM"}
    ]},
    {"molecule": "B2", "values": [
      {"measurement": "Km", "setting": "[5]; Michaelis-Menten fit with Hill coefficient (cooperative), no FhuD", "result": "690 ± 80", "unit": "µM"}
    ]},
    {"molecule": "B3", "values": [
      {"measurement": "Km", "setting": "[5]; Michaelis-Menten fit with Hill coefficient, 1 μM FhuD enclosed, no ferrichrome", "result": "740 ± 50", "unit": "µM"}
    ]}
  ]
}
